Experiment: yeast display, Sf9 membrane polyspecificity reagent, FACS + sequencing; frameworks hold sequencing errors
How it was run: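 A nanobody's polyreactivity label depends on the gate it was sorted from. Yeast display cells were stained with 10% biotinylated, detergent-solubilized Sf9 membrane reagent for 1 hour at 4 °C, enriched on streptavidin microbeads and sorted by FACS. The low and high (top ~1%) gates were set on anti-HA fluorescence for expression and streptavidin fluorescence for reagent binding.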

| Sequence | polyreactivity (PSR sort gate) |
| --- | --- |
| QVQLVESGGGLVQAGGSLRLSCAASGRIFVVNAMGWYRQAPGKERELVATITRSGGITYYADSVKGRFTISRDNAKNTVYLQMNSLNPEDTAVYYCNADVLFYTYYTRGRFDFDYWGQGTQVTVSS | low polyreactivity |
| QVQLVESGGGLVQAGGSLRLSCAASGRIFVVYAMGWYRQAPGKERELVASISRGGRTYYADSVKGRFTISRDNAKNTVYLQMNSLKPEDTAVYDCAVVVYLKNRDLFDYWGQGTQVTVSS | low polyreactivity |
| QVQLVESGGGLVQAGGSLRLSCAASGRIFVYNAMGWYIQAPGKERELVAAISWSTGRTNYADSVKGRFTISRDNAKNTVYLQMNSLKPDDTAVYYCAAEWAWEYYSFWSEYDYWGQGTQVTVSS | high polyreactivity |
| QVQLVESGGGLVQAGGSLRLSCAASGRIFVYNAMGWYLQAPGKERELVANIDYSGGSTYYADSVKGRFTISRDNAKNTVYLQMNSLKPEDTAVYYCAADGGSTAFDYWGHGTQVTVSS | low polyreactivity |
| QVQLVESGGGLVQAGGSLRLSCAASGRIFVYNAMGWYRQAPGKEREFVAAISWDGASTYYADSVKGRFTISRDNAKNTVYLQMNSLKPEDTAVYYCAASYRRKLNYDYWGQGTQVTVSS | low polyreactivity |
| QVQLVESGGGLVQAGGSLRLSCAASGRIFVYNDMGWYRQAPGKERELVAAISSVGTTYYADSVKGRFTISRDNAKNTVYLQMNSLKPEDTAVYYCAVTRYHSPPRYYYWGQGTQVTVSS | low polyreactivity |
| QVQLVESGGGLVQAGGSLRLSCAASGRIFVYNTMGWYRQAPGKERELVAVISIGGSTKYADSVKGRFTISRDNAKNTVYLQMNSLKPEDTAVYYCNTDLAGLVYIAVDYWGQGTQVTVSS | low polyreactivity |
| QVQLVESGGGLVQAGGSLRLSCAASGRIFVYNVMGWYRQAPGKERELVAAISWGTGSTYADSVKGRFTISRDNAKNTVYLQMHSLKPEDTAVYYCAADSFIPPYDHWGQGTQVTVSS | low polyreactivity |
| QVQLVESGGGLVQAGGSLRLSCAASGRIFVYNVMGWYRQAPGKERELVAAISWGTGSTYADSVKGRFTISRDNAKNTVYLQMNSLKPEDTAVYYCAAPSPRSRAYTYRGDYWGQGTQVTVSS | low polyreactivity |
| QVQLVESGGGLVQAGGSLRLSCAASGRIFVYYAMGWYRQAPGKERELVAAIRWTGGSTYYADSVKGRFTISRDNAKNTVYLQMNSLKPEDTAVYYCATVNRYGHFNYWGQGTQVTVSS | high polyreactivity |
| QVQLVESGGGLVQAGGSLRLSCAASGRIFVYYAMGWYSQAPGKERELVASISYSGASTYYADSVKGRFTISRDNAKNTVYLQMNSLKPEDTAVYYCNTDGDDFFHVIYDYWGQGTQVTVSS | low polyreactivity |
| QVQLVESGGGLVQAGGSLRLSCAASGRIFWDNAMGWYRQAPGKERELVAAIDYRGGNTNYADSVKGRFTISRDNAKNTVYFQMNSLKPEDTAVYYCNAEWAVRYPGYDYWGQGSQVTVSS | low polyreactivity |
| QVQLVESGGGLVQAGGSLRLSCAASGRIFWDYGMGWYRQAPGKERELVAVITWGGGSTYYADSVKGRFTISRDNAKNTVYFQMNSLKPEDTAVYYCAKEYHYYYWGQGTQVTVSS | low polyreactivity |
| QVQLVESGGGLVQAGGSLRLSCAASGRIFWEYAMGGYRQAPGKERELVAAITWRVGSTYYADSVKGRFTISRDYAKNTVYLQMNSLKPEDTAVFYCAAARYLSIYNYWGHGTQVTVSS | low polyreactivity |
| QVQLVESGGGLVQAGGSLRLSCAASGRIFWGNAMGWYRQAPGKERELVAAITRSGGSTYYADSVKGRFTISRDNAKNTVYLQMNSLKPEDTAVYYCAARRNYINFRYTLDYYYWGQGTQVTVSS | high polyreactivity |
| QVQLVESGGGLVQAGGSLRLSCAASGRIFWGYAMGWYRQAPGKERELVAAITSGGSTYYADSVKGRFTFSRDNAKNTVYLQMNSLKPEDTAVYYCAAYYVLKLRYGHRYYYWGQGTQVTVSS | high polyreactivity |
| QVQLVESGGGLVQAGGSLRLSCAASGRIFWGYAMGWYRQAPGKERELVAGIRTSGGTTYYADSVKGRFTISRDNAKNTVYLQMNSLKPEDTAVYYCAVVQYTVYNSLYDYWGQGTQVTVSS | low polyreactivity |
| QVQLVESGGGLVQAGGSLRLSCAASGRIFWGYDMGWYRQAPGKEREFVAAISSGGGRKYYADSVKGRFTISRDNAKNTVYLQMNSLKPEDTAVYYCNAELNWYYYIHLDYWGQGTQVTVSS | low polyreactivity |
| QVQLVESGGGLVQAGGSLRLSCAASGRIFWINAMGWYRQAPGKERELVATISSGSTSYADSVKGRFTISRDNAKNTVYLQMNSLKPEDTAVYYCAADFVFRWYSYTGRWYSSYDYWGQGTQVTVSS | low polyreactivity |
| QVQLVESGGGLVQAGGSLRLSCAASGRIFWPNTMGWYRQAPGKERELVATITSTGTRTYYADSVKGRFTISRDNAKNTVYLQMNSLNPEDTAVYYCNARGYYRPDRPTRRNRFDYWGQGTQVTVSS | high polyreactivity |

| Sequence | polyreactivity (PSR sort gate) |
| --- | --- |
| QVQLVESGGGLVQAGGSLRLSCAASGRIFWQYAMGWYRQAPGKERELVAAISRSGGSTYYADSVKGRFTISRDNAKNTVYLQMKCLTPEDTAVYYCAARKASGVPGSAGRPEYYYWGQGTQVTVSS | high polyreactivity |
| QVQLVESGGGLVQAGGSLRLSCAASGRIFWRYAMGWYRQAPGQERELVAAISRGGGRTYYADSVKGRFTSSRDNAKNTVYLQMNSLKPEDTAVYYCAARSTQGRFENWGQGTQVTVSS | high polyreactivity |
| QVQLVESGGGLVQAGGSLRLSCAASGRIFWTNAMGWYRQAPGKERELVAGITWRGGSTYYADSVKGRFTISRDNAKNTVYLQMNSLKPEDTAVYYCATRQGWYSGFDYWGQGTQVTVSS | high polyreactivity |
| QVQLVESGGGLVQAGGSLRLSCAASGRIFWVYAMGWYRQAPGKERELVAAISSTGDGTYYADSVKGRFTISRDNAKNTVYLQMNSLKPVDTAVYYCAADFRVARSPLSGGSDYWGQGTQVTVSS | low polyreactivity |
| QVQLVESGGGLVQAGGSLRLSCAASGRIFWVYAMGWYRQAPGKERELVAAISTRGGSTYYADSVKGRFTISRDNAKNRVYLQKNRLKPDDTAVYYCAADYDDKYDYWGQGTQVTVSS | low polyreactivity |
| QVQLVESGGGLVQAGGSLRLSCAASGRIFWWNTMGWYRQAPGKERELVASITGSGGRTSYADSVKGRFTISRDNAKNTVYLQMNSLKPEDTAVYYCAKEHVSKWSYPYYYWGQGTQVTVSS | high polyreactivity |
| QVQLVESGGGLVQAGGSLRLSCAASGRIFWYYAMGWYRQAPGKERELVAAITRSGASTYYADSVKGRFTISRDNAKNTVYLQMNSLKPEDTAVYYCAARGRWNVPARRDYWGQGTQVTVSS | high polyreactivity |
| QVQLVESGGGLVQAGGSLRLSCAASGRIFWYYAMGWYRQAPGKEWELVARISSSGGSTYYADSVKGRFTISRDNAKNTVYLQMNSLKPEDTAVYYCAKERYSGSSRYPMDYWGQGTQVTVSS | high polyreactivity |
| QVQLVESGGGLVQAGGSLRLSCAASGRIFWYYDMGWYRPAPGKERELVAAISQRGGSTYYADSVKGRFTISRDNAKNTVYLQMNSLKPEDTAVYYCAAYSRYLGPTHHIKYDYWGQGTQVTVSS | high polyreactivity |
| QVQLVESGGGLVQAGGSLRLSCAASGRIFYANAMGWYRQAPGKEWEFVASITYGGGSTYYADSVKGRFTISRDNAKNTVYLQMNSLKPEDTAVYYCAAGYYAQYEDYIRYDYWGQGTQVTVSS | low polyreactivity |
| QVQLVESGGGLVQAGGSLRLSCAASGRIFYAYALGWYRQATGIERELVAAISRRGGSTYYADSVKGRFTISRDNAKNTVYLQMNSLKPEDTAVYYCAADRQFSYVYYIDPTAYEYCGQGTQVTVSS | high polyreactivity |
| QVQLVESGGGLVQAGGSLRLSCAASGRIFYAYAMGWYRQAPGKEREFVAAISWGGGSTNYADSVKGRFTISRDNAKNTVYLQMNSLKPEDTAVYYCATGFYYYLTKTIPYEYEYWGQGTQVTVSS | low polyreactivity |
| QVQLVESGGGLVQAGGSLRLSCAASGRIFYAYAMGWYRQAPGKERELVAAISYIAGITYYADSVKGRFTISRDNAKNTVYLQMNSLIPEDTAVYYCAADDMVTGPLDFWGQGTQVTVSS | low polyreactivity |
| QVQLVESGGGLVQAGGSLRLSCAASGRIFYAYAMGWYRQAPGKERELVAGITYSGSSTYYADSVKGRFTISRDNAKNTVYLQMNSLKPEDTAVYYCAADLTRVLRYNYWGQGTQVSVSS | low polyreactivity |
| QVQLVESGGGLVQAGGSLRLSCAASGRIFYAYAMGWYRQAPGKEREMVAAISKGGGSTYYADSVKGRFTISRDNAKNSVYLQMNSLKPEDTAVYYCNAQQYPYHIKYDYWGQGSQVTVSS | low polyreactivity |
| QVQLVESGGGLVQAGGSLRLSCAASGRIFYAYAMGWYRQEPGKERELVASISGSGGSTYYADSVKGRFTISRDNAKNTVYLQMNRLKPEDTAVYYCAKRYPFYSSGLSTYNYWGQGTQVTVSS | high polyreactivity |
| QVQLVESGGGLVQAGGSLRLSCAASGRIFYDNVMGWYRQAPGKERDLVAAISRSGGDTYYADSVKVRFTISRDNAKNTVYLQMNSLKPEDTAVYYCAADIYAFSGLYYYWGQGTQVTVSS | high polyreactivity |
| QVQLVESGGGLVQAGGSLRLSCAASGRIFYDYAMGGSRQAPGKERELVAAISKGGGSTYYADSVKGRFTISRDNAKNTVYLQMYSLKPEDTAVYYCAASSSLTTDTLYDYWGQGTQVTVSS | low polyreactivity |
| QVQLVESGGGLVQAGGSLRLSCAASGRIFYDYAMGWYRQAPGKEWELVAAISGSGGSTYYADSVKGRFTISRDNAKNTVYLQMNSLKPEDTAVYYCNRYTTRYYPGGDYWGQGTQVTVSS | high polyreactivity |
| QVQLVESGGGLVQAGGSLRLSCAASGRIFYDYAMGWYRQAPGKQREFVAAIRWRGGSTYYADSVKGRFTISRDNAMNTVYLQMNSLKPEDTAVYYCATKSYYKFGYWGQGSQVTVSS | high polyreactivity |

Reference: the nanobody polyreactivity screen of Harvey et al. (2022)
